Assay results as given in the supplement of paper PMC9112550, “Optimization of the antimicrobial peptide Bac7 by deep mutational scanning” (BMC Biology, 2022).

tested on: Escherichia coli TOP10; assay: shrunken log2 fold change of peptide-encoding DNA abundance (4.5 h post-induction vs induction); higher = less antimicrobial activity (less host growth inhibition); settings: time post-induction: 4.5 h; library: site-saturation at positions 5, 18, 19, 20
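Also: peptides expressed intracellularly from a pBAD plasmid library in pooled LB shake-flask culture, induced with 0.3% L-arabinose, DNA abundance read by NGS, three biological replicates, DESeq2 with apeglm shrinkage.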

Point of comparison: RRIRDRPPRLPRPRPRPEDIPRP, “shrunken log2 fold change” value 0.0238. Against it:
- RRIRQRPPRLPRPRPRPIHPPRP — within 0.2 log units, -0.0838
- RRIRQRPPRLPRPRPRPFRFPRP — within 0.2 log units, 0.0421
- RRIRLRPPRLPRPRPRPKLYPRP — within 0.2 log units, 0.0148
- RRIRQRPPRLPRPRPRPLFKPRP — lower, -0.387
- RRIRNRPPRLPRPRPRPYWNPRP — within 0.2 log units, -0.108
- RRIRQRPPRLPRPRPRPHRFPRP — lower, -0.275
- RRIRWRPPRLPRPRPRPIATPRP — higher, 0.435
- RRIRERPPRLPRPRPRPSSNPRP — within 0.2 log units, -0.0512
- RRIRGRPPRLPRPRPRPLSVPRP — higher, 0.383
- RRIRVRPPRLPRPRPRPVPTPRP — within 0.2 log units, 0.149
- RRIRARPPRLPRPRPRPQIHPRP — within 0.2 log units, -0.0277
- RRIRGRPPRLPRPRPRPYKDPRP — lower, -0.322
- RRIRTRPPRLPRPRPRPSCPPRP — lower, -0.444
- RRIRARPPRLPRPRPRPMYQPRP — lower, -0.21
- RRIRNRPPRLPRPRPRPFSWPRP — within 0.2 log units, 0.0512
- RRIRPRPPRLPRPRPRPWTVPRP — within 0.2 log units, -0.155
- RRIRRRPPRLPRPRPRPSVHPRP — lower, -0.278
- RRIRARPPRLPRPRPRPKNKPRP — within 0.2 log units, 0.216
- RRIRARPPRLPRPRPRPVRAPRP — higher, 0.924
- RRIRARPPRLPRPRPRPDLFPRP — higher, 1.09
- RRIRCRPPRLPRPRPRPWRSPRP — within 0.2 log units, -0.0803
- RRIRQRPPRLPRPRPRPVVIPRP — lower, -0.292
- RRIRVRPPRLPRPRPRPQNFPRP — within 0.2 log units, -0.0453
- RRIRMRPPRLPRPRPRPEKLPRP — higher, 0.462
- RRIRIRPPRLPRPRPRPMYNPRP — lower, -0.429
- RRIRHRPPRLPRPRPRPGMNPRP — within 0.2 log units, 0.00489
- RRIRHRPPRLPRPRPRPMYWPRP — lower, -0.222
- RRIRVRPPRLPRPRPRPTAVPRP — higher, 0.327
- RRIRPRPPRLPRPRPRPHQVPRP — higher, 0.341
- RRIRFRPPRLPRPRPRPAVDPRP — higher, 0.43
- RRIRKRPPRLPRPRPRPIIRPRP — lower, -0.59
- RRIRARPPRLPRPRPRPGVVPRP — higher, 0.645
- RRIRLRPPRLPRPRPRPMRDPRP — higher, 0.336
- RRIRARPPRLPRPRPRPQDMPRP — lower, -0.322
- RRIRCRPPRLPRPRPRPKQAPRP — within 0.2 log units, -0.0334
- RRIRNRPPRLPRPRPRPNILPRP — within 0.2 log units, -0.0518
- RRIRARPPRLPRPRPRPWNSPRP — lower, -0.222
- RRIRPRPPRLPRPRPRPQTWPRP — lower, -0.254
- RRIRPRPPRLPRPRPRPAWSPRP — within 0.2 log units, 0.152
- RRIRSRPPRLPRPRPRPPGQPRP — higher, 0.4
- RRIRSRPPRLPRPRPRPECYPRP — within 0.2 log units, 0.133
- RRIRQRPPRLPRPRPRPKTAPRP — within 0.2 log units, 0.0173
- RRIRGRPPRLPRPRPRPSMDPRP — within 0.2 log units, 0.0712
- RRIRHRPPRLPRPRPRPMVSPRP — within 0.2 log units, -0.00841
- RRIRIRPPRLPRPRPRPVGRPRP — within 0.2 log units, 0.0883
- RRIRVRPPRLPRPRPRPTVHPRP — within 0.2 log units, -0.0675
- RRIRPRPPRLPRPRPRPWYTPRP — within 0.2 log units, -0.0297
- RRIRNRPPRLPRPRPRPWISPRP — within 0.2 log units, -0.0184
- RRIRCRPPRLPRPRPRPKGLPRP — within 0.2 log units, -0.134
- RRIRYRPPRLPRPRPRPFCHPRP — lower, -0.239
- RRIRFRPPRLPRPRPRPDEFPRP — lower, -0.267
- RRIRQRPPRLPRPRPRPSLMPRP — within 0.2 log units, -0.112
- RRIRWRPPRLPRPRPRPYGGPRP — lower, -0.683
- RRIRWRPPRLPRPRPRPAFWPRP — higher, 0.708
- RRIRTRPPRLPRPRPRPWAGPRP — within 0.2 log units, -0.0234
- RRIRTRPPRLPRPRPRPNEGPRP — lower, -0.191
- RRIRHRPPRLPRPRPRPGLWPRP — within 0.2 log units, 0.0565
- RRIRPRPPRLPRPRPRPWEGPRP — within 0.2 log units, 0.0632
- RRIRSRPPRLPRPRPRPNNLPRP — lower, -1.04
- RRIRTRPPRLPRPRPRPHGYPRP — lower, -0.267
- RRIRSRPPRLPRPRPRPTSSPRP — lower, -0.296
- RRIRMRPPRLPRPRPRPTNCPRP — within 0.2 log units, 0.0955
- RRIRNRPPRLPRPRPRPDMDPRP — within 0.2 log units, -0.0127
- RRIRIRPPRLPRPRPRPKFYPRP — lower, -0.713
- RRIRTRPPRLPRPRPRPNVPPRP — within 0.2 log units, -0.0447
- RRIRIRPPRLPRPRPRPGQCPRP — within 0.2 log units, -0.13
- RRIRPRPPRLPRPRPRPYHKPRP — lower, -1.15
- RRIRYRPPRLPRPRPRPFFLPRP — lower, -0.763
- RRIRHRPPRLPRPRPRPGMPPRP — higher, 0.47
- RRIRRRPPRLPRPRPRPPLHPRP — higher, 0.695
- RRIRVRPPRLPRPRPRPLARPRP — within 0.2 log units, 0.0756
- RRIRNRPPRLPRPRPRPQEYPRP — lower, -0.578
- RRIRLRPPRLPRPRPRPMIGPRP — within 0.2 log units, 0.0237
- RRIRERPPRLPRPRPRPITHPRP — lower, -0.527
- RRIRIRPPRLPRPRPRPYGTPRP — lower, -0.894
- RRIRFRPPRLPRPRPRPIPAPRP — within 0.2 log units, -0.15
- RRIRGRPPRLPRPRPRPLNLPRP — within 0.2 log units, -0.018
- RRIRERPPRLPRPRPRPGIFPRP — within 0.2 log units, 0.099
- RRIRDRPPRLPRPRPRPGSNPRP — within 0.2 log units, -0.153
- RRIRKRPPRLPRPRPRPEKFPRP — within 0.2 log units, -0.0568
- RRIRPRPPRLPRPRPRPMFEPRP — within 0.2 log units, 0.0626
- RRIRMRPPRLPRPRPRPEWQPRP — higher, 0.23
- RRIRERPPRLPRPRPRPSPKPRP — within 0.2 log units, 0.0298
- RRIRLRPPRLPRPRPRPTNRPRP — higher, 0.267
- RRIRMRPPRLPRPRPRPPMPPRP — higher, 0.703
- RRIRGRPPRLPRPRPRPQIPPRP — higher, 0.25
- RRIRFRPPRLPRPRPRPKHRPRP — within 0.2 log units, -0.094
- RRIRWRPPRLPRPRPRPFVNPRP — lower, -0.483
- RRIRLRPPRLPRPRPRPCRRPRP — within 0.2 log units, -0.0846
- RRIRWRPPRLPRPRPRPQEIPRP — within 0.2 log units, -0.0137
- RRIRIRPPRLPRPRPRPFHYPRP — within 0.2 log units, 0.0334
- RRIRYRPPRLPRPRPRPQPGPRP — within 0.2 log units, -0.0846
- RRIRQRPPRLPRPRPRPQMSPRP — within 0.2 log units, -0.0844
- RRIRGRPPRLPRPRPRPKSRPRP — within 0.2 log units, 0.0451
- RRIRGRPPRLPRPRPRPQAIPRP — higher, 0.58
- RRIRERPPRLPRPRPRPINPPRP — within 0.2 log units, -0.00597
- RRIRSRPPRLPRPRPRPQEIPRP — within 0.2 log units, -0.16
- RRIRARPPRLPRPRPRPINIPRP — lower, -0.334
- RRIRSRPPRLPRPRPRPPQQPRP — higher, 0.38
- RRIRNRPPRLPRPRPRPGGGPRP — higher, 0.723
- RRIRCRPPRLPRPRPRPSNAPRP — lower, -0.572
- RRIRLRPPRLPRPRPRPLIYPRP — lower, -0.832
- RRIRWRPPRLPRPRPRPCMQPRP — within 0.2 log units, 0.0574
- RRIRKRPPRLPRPRPRPFMVPRP — within 0.2 log units, -0.145
- RRIRMRPPRLPRPRPRPPLRPRP — higher, 0.852
- RRIRNRPPRLPRPRPRPVQKPRP — within 0.2 log units, -0.0122
- RRIRWRPPRLPRPRPRPNICPRP — within 0.2 log units, 0.0504
- RRIRTRPPRLPRPRPRPNFEPRP — within 0.2 log units, -0.101
- RRIRKRPPRLPRPRPRPWPCPRP — within 0.2 log units, 0.161
- RRIRARPPRLPRPRPRPLIWPRP — higher, 0.359
- RRIRTRPPRLPRPRPRPMITPRP — within 0.2 log units, -0.0731
- RRIRSRPPRLPRPRPRPDPYPRP — lower, -0.312
- RRIRVRPPRLPRPRPRPQCLPRP — within 0.2 log units, -0.0868
- RRIRARPPRLPRPRPRPYRMPRP — within 0.2 log units, 0.0568
- RRIRRRPPRLPRPRPRPDHKPRP — within 0.2 log units, 0.027
- RRIRKRPPRLPRPRPRPFRHPRP — within 0.2 log units, -0.0849
- RRIRARPPRLPRPRPRPMIIPRP — within 0.2 log units, -0.0301
- RRIRPRPPRLPRPRPRPGVNPRP — lower, -0.342
- RRIRERPPRLPRPRPRPGPPPRP — higher, 0.317
- RRIRIRPPRLPRPRPRPNFYPRP — lower, -0.565
- RRIRERPPRLPRPRPRPNFMPRP — lower, -0.178
- RRIRSRPPRLPRPRPRPHIWPRP — lower, -0.442
- RRIRIRPPRLPRPRPRPSRKPRP — within 0.2 log units, -0.148
- RRIRCRPPRLPRPRPRPFRSPRP — within 0.2 log units, -0.142
- RRIRPRPPRLPRPRPRPVEAPRP — higher, 0.481
- RRIRPRPPRLPRPRPRPPKLPRP — within 0.2 log units, 0.172
- RRIRERPPRLPRPRPRPFEKPRP — within 0.2 log units, 0.00177
- RRIRERPPRLPRPRPRPTIEPRP — within 0.2 log units, -0.0577
- RRIRQRPPRLPRPRPRPYMIPRP — within 0.2 log units, 0.00875
- RRIRWRPPRLPRPRPRPLRAPRP — higher, 1.19
- RRIRPRPPRLPRPRPRPTSSPRP — within 0.2 log units, 0.0475
- RRIRTRPPRLPRPRPRPSKAPRP — within 0.2 log units, -0.0453
- RRIRARPPRLPRPRPRPVGYPRP — higher, 0.265
- RRIRARPPRLPRPRPRPIKWPRP — higher, 0.235
- RRIRQRPPRLPRPRPRPNKRPRP — within 0.2 log units, 0.0702
- RRIRWRPPRLPRPRPRPTFAPRP — higher, 0.327
- RRIRDRPPRLPRPRPRPVISPRP — higher, 0.277
- RRIRRRPPRLPRPRPRPESLPRP — within 0.2 log units, 0.0493
- RRIRKRPPRLPRPRPRPNSFPRP — lower, -0.234
- RRIRMRPPRLPRPRPRPTRYPRP — higher, 0.628
- RRIRWRPPRLPRPRPRPHMRPRP — higher, 0.494
- RRIRKRPPRLPRPRPRPPQFPRP — within 0.2 log units, 0.127
- RRIRFRPPRLPRPRPRPFTLPRP — within 0.2 log units, 0.0331
- RRIRQRPPRLPRPRPRPFTLPRP — within 0.2 log units, -0.0549
- RRIRQRPPRLPRPRPRPISGPRP — within 0.2 log units, -0.018
- RRIRYRPPRLPRPRPRPAMPPRP — lower, -0.549
- RRIRIRPPRLPRPRPRPEKLPRP — within 0.2 log units, -0.048
- RRIRSRPPRLPRPRPRPPAHPRP — higher, 0.303
- RRIRYRPPRLPRPRPRPESCPRP — within 0.2 log units, 0.0195
